Assay: sheep red blood cell hemolysis, OD542
Conditions: glycan lost; control: WT Anxa2

Row | Protein | other: MBL-MASP complement activation
1 | Annexin A2 (Anxa2): S22A (protein) parent chain: MSTVHEILCKLSLEGDHSTPPSAYGSVKPYTNFDAERDALNIETAVKTKGVDEVTIVNILTNRSNVQRQDIAFAYQRRTKKELPSALKSALSGHLETVILGLLKTPAQYDASELKASMKGLGTDEDSLIEIICSRTNQELQEINRVYKEMYKTDLEKDIISDTSGDFRKLMVALAKGRRAEDGSVIDYELIDQDARELYDAGVKRKGTDVPKWISIMTERSVCHLQKVFERYKSYSPYDMLESIKKEVKGDLENAFLNLVQCIQNKPLYFADRLYDSMKGKGTRDKVLIRIMVSRSEVDMLKIRSEFKRKYGKSLYYYIQQDTKGDYQKALLYLCGGDD | decreases
2 | Annexin A2 (Anxa2): S26A (protein) parent chain: MSTVHEILCKLSLEGDHSTPPSAYGSVKPYTNFDAERDALNIETAVKTKGVDEVTIVNILTNRSNVQRQDIAFAYQRRTKKELPSALKSALSGHLETVILGLLKTPAQYDASELKASMKGLGTDEDSLIEIICSRTNQELQEINRVYKEMYKTDLEKDIISDTSGDFRKLMVALAKGRRAEDGSVIDYELIDQDARELYDAGVKRKGTDVPKWISIMTERSVCHLQKVFERYKSYSPYDMLESIKKEVKGDLENAFLNLVQCIQNKPLYFADRLYDSMKGKGTRDKVLIRIMVSRSEVDMLKIRSEFKRKYGKSLYYYIQQDTKGDYQKALLYLCGGDD | decreases

Reference: PMC12407318
